The source of these data is US20090136516A1 (DUKE UNIVERSITY, published 2009).

Assay [1] addresses T1, mouse CD20 (mouse, UniProt P19437 1-291).
T1 construct: whole, on cells; Endogenous mouse CD20 on primary B cells; also called cell-surface CD20
T1 sequence (looked up): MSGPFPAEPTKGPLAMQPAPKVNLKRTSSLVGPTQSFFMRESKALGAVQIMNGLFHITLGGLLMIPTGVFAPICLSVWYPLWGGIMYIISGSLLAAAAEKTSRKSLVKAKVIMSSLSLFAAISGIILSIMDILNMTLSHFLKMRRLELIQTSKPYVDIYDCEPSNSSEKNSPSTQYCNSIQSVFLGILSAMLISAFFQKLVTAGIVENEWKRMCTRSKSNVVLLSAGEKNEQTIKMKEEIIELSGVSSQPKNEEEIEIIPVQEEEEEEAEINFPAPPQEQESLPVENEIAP
The assay can be described thus: flow cytometry, mouse spleen CD19+ B cells, control staining (background).

Assay [2] has as its target T2, human CD20 (human, UniProt P11836 1-297).
T2 construct: whole, on cells; also called cell surface CD20
T2 sequence (looked up): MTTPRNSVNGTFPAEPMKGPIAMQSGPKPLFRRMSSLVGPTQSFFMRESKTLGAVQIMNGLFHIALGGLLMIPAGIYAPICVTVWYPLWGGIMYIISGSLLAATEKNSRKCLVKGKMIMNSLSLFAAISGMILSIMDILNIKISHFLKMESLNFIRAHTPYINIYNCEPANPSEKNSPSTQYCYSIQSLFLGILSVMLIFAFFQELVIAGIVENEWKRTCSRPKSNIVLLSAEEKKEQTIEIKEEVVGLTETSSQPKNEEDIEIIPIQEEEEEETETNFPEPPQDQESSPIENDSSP
Description: flow cytometry, human blood B cells, secondary antibody alone (background). On the technique in general: In flow cytometry, cells or beads pass a laser one at a time.

For assay [3], the target named is T2, human CD20. Description: flow cytometry, BJAB cells, secondary antibody alone (background).
Assay [4] concerns the target T2, human CD20. Description: flow cytometry, Raji cells, secondary antibody alone (background).
Assay [5] concerns the target T2, human CD20. Description: flow cytometry, DHL-4 cells, secondary antibody alone (background).
A further assay concerns the target T3, mouse CD20 (mouse) (UniProt P19437).
T3 sequence (looked up): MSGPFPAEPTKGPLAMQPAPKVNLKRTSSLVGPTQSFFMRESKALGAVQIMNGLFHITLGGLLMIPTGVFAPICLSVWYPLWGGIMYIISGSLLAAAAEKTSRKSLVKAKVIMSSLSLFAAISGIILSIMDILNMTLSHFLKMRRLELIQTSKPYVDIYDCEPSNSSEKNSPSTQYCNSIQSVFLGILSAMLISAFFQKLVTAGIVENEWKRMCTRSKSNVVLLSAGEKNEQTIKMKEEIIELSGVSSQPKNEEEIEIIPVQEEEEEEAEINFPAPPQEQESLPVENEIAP
Description: flow cytometry, mouse spleen CD19+ B cells, mAb at 0.5 µg/mL, isotype-specific secondary antibody.

Assay [6] deals with T1, mouse CD20. The description is as above. The protocol: Twelve mouse anti-mouse CD20 monoclonal antibodies, with representatives of each IgG isotype, were assessed for their ability to bind B cells and deplete them in vivo. Each monoclonal antibody reacted uniformly with CD19⁺ primary B cells in vitro with characteristic mean fluorescence intensities that were independent of monoclonal antibody isotype (FIG. 6A). When monoclonal antibody reactivity with primary B cells was assessed over a range of monoclonal antibody concentrations, most monoclonal antibodies reached saturating levels of staining when used at concentrations between 1-10 μg/mL (FIG. 6B). […] When all monoclonal antibodies were used at 0.5 μg/mL, each monoclonal antibody reacted uniformly with CD19⁺ primary B cells with characteristic low to high mean fluorescence intensities (FIG. 6C, Table 5). Similar results were obtained using a mouse CD20 cDNA-transfected pre-B cell line with anti-mouse Ig secondary antibody. Based on this analysis, the MB20-1 monoclonal antibody represented monoclonal antibodies with the lowest relative affinity/avidity, while the MB20-18 monoclonal antibody reacted strongly with B cells and stained B cells at the highest levels of all 12 anti-CD20 monoclonal antibodies (Table 5).

Assay [7] addresses T1, mouse CD20. The assay can be described thus: indirect immunofluorescence, flow cytometry, cultured mouse spleen B cells at 37 C. More on the design: reference not given here.
Assay [8] addresses T2, human CD20. The assay can be described thus: indirect immunofluorescence, flow cytometry, BJAB cells, saturating mAb. How it is done: (§1) Reactivity of human blood lymphocytes and the Raji, BJAB or DHL-4 B lymphoblastoid cell lines with anti-CD20 monoclonal antibodies at saturating concentrations or with secondary antibody alone (control). The anti-CD20 monoclonal antibodies were used at concentrations that were determined to be saturating and that gave optimal staining. 1F5, B9E9 and 1H4 (IgG2a) monoclonal antibodies were used as ascites fluid diluted 1:200. HB20-3, -4 and -25 monoclonal antibodies were used as tissue culture supernatant fluid. B1 monoclonal antibody was used at either 10 μg/mL of purified monoclonal antibody or as tissue culture supernatant fluid. In all cases, monoclonal antibody staining was visualized using PE-conjugated isotype-specific secondary antibodies with flow cytometry analysis. Values represent the mean linear fluorescence intensity of staining for each B cell population as determined by flow cytometry analysis. Results are representative of those obtained in ≧3 experiments.

The target of assay [9] is T2, human CD20. Description: indirect immunofluorescence, flow cytometry, DHL-4 cells, saturating mAb. How it is done:
as §1

The target of assay [10] is T2, human CD20. The assay can be described thus: indirect immunofluorescence, flow cytometry, Raji cells, saturating mAb. How it is done: as §1
Assay [11] addresses T2, human CD20. Description: indirect immunofluorescence, flow cytometry, human blood B cells, saturating mAb. The protocol: as §1

“isotype-matched control monoclonal antibodies (antibody)”: the B cell reactivity (mean linear fluorescence intensity) (mean linear fluorescence intensity) with mouse CD20 [1] is below 6.
Regarding secondary antibody alone (control), the mean linear fluorescence intensity (mean linear fluorescence intensity) in the assay with human CD20 [2] was 1; with human CD20 [3], 10; with human CD20 [4], 3; with human CD20 [5], 1.

B1: MB20-16 monoclonal antibody (antibody, part only; not given: light chain, V domains shown, part only)
VH: EVQLQESGPELVKPGASVKMSCKASGYTFTDYNLHWVKQSHGQSLEWIGYINPNNGGATYNQKFTGKATLTVNRSSSTAYMELRSLTSDDSAVYYCAEIYDGYYWGQGTTLTVSS
In the assay with mouse CD20 (mouse), B1 displayed a B cell reactivity (mean linear fluorescence intensity) (mean linear fluorescence intensity) of 170.

B2: MB20-11 monoclonal antibody (antibody, part only; not given: light chain, V domains shown, part only)
VH: EVQLQESGPELVKPGASVKMSCKASGYKITDYNMHWVKQSHGKSLEWIGYIAPYNGGTTYNQKFKGKATLTVNKSSSTAYMELRSLTSEDSAVYYCAGALDYWGQGTSVTVSS
B2 came in with a B cell reactivity (mean linear fluorescence intensity) (mean linear fluorescence intensity) in the assay with mouse CD20 [6] of 158. In the assay with mouse CD20 [7], this molecule registered an increase in antibody binding over time of 97%.

B3: 1H4 (IgG2a) anti-CD20 monoclonal antibody (antibody)
chain 1: QVQLQQPGAELVKPGASVKMSCKTSGYTFTSYNVHWVKQTPGQGLEWIGAIYPGNGDTSFNQKFKGKATLTADKSSSTVYMQLSSLTSEDSAVYYCARSNYYGSSYVWFFDVWGAGTTGTGSS
chain 2: QIVLSQSPTILSASPGEKVTMTCRASSSVSYMDWYQQKPGSSPKPWIYATSNLASGVPARFSGSGSGTSYSLTISRVEAEDAATYYCQQWISNPPTFGAGTKLELK
In the case of B3, the “mean linear fluorescence intensity” value with human CD20 [8] was 240 mean linear fluorescence intensity; with human CD20 [9], 98 mean linear fluorescence intensity; in the assay with human CD20 [10], 244 mean linear fluorescence intensity; with human CD20 [11] it was 75 mean linear fluorescence intensity.
